Data taken from publication PMC4380549.

Target: FGFR3 TM-JM-YFP/mCherry (human)
Assay: FRET or BRET

## FGFR3 TM-JM-YFP/mCherry (domain or fragment)
  percent dimer: 100%
